# In PMC2193136:
# Target: HLA-DR2 (DRA1*0101/DRB1*1501) molecules, detergent-solubilized, purified from S2 cells (human)
# Experiment: competition peptide-binding assay
row,Substance,IC50
1,MBP 85–97 truncated peptide,15 nM
2,MBP 85–98 truncated peptide,4 nM
3,MBP 85–99 analogue 85 (E→A) (peptide),7 nM
4,MBP 85–99 analogue 94 (N→A) (peptide),4 nM
5,MBP 85–99 analogue 88 (V→A) (peptide),10 nM
6,MBP 85–99 analogue 90 (H→A) (peptide),10 nM
7,MBP 87–99 truncated peptide,5 nM
8,MBP 85–99 analogue 97 (T→A) (peptide),4 nM
9,MBP 85–99 analogue 89 (V→A) (peptide),50 nM
10,MBP 85–99 peptide,5 nM
11,MBP 85–96 truncated peptide,20 nM
12,MBP 85–99 analogue 93 (K→A) (peptide),4 nM
13,MBP 85–99 analogue 96 (V→A) (peptide),4 nM
14,MBP 88–99 truncated peptide,30 nM
15,MBP 85–99 analogue 87 (P→A) (peptide),10 nM
16,MBP 86–99 truncated peptide (row label printed as (85–99)),3 nM
17,MBP 85–99 analogue 91 (F→A) (peptide),10 nM
18,MBP 85–99 analogue 95 (I→A) (peptide),4 nM
19,MBP 85–99 analogue 86 (N→A) (peptide),7 nM
20,MBP 85–99 analogue 99 (R→A) (peptide),5 nM
21,MBP 85–99 analogue 98 (P→A) (peptide),5 nM
22,MBP 85–99 analogue 92 (F→Y) (peptide),12 nM

# Target: HLA-DR2 (DRA1*0101/DRB1*1501) molecules, detergent-solubilized, purified from S2 cells (human)
# Experiment: peptide binding inhibition assay
row,Substance,IC50
1,human PLP peptide PLP 40–60,200 nM
2,human PLP peptide PLP 95–116,1480 nM
3,HLA-DQw6 peptide corresponding to residues 43–58,70 nM
